System: Mab 2G12 binding to gp120JR-FL
Test: Competition ELISA: inhibition of 2G12 binding to gp120JR-FL by carbohydrates
Parameters: species or system HIV-1
Conditions: 2G12 1 μg/ml
Procedure: Competition enzyme-linked immunosorbent assays (ELISAs) were performed to determine the relative inhibition constants of different carbohydrates on 2G12. GP120JR-FL was first captured onto microtiter plate wells (flat bottom, Costar type 3690; Corning Inc.). Subsequently serial dilutions of Man9GlcNAc2, Manα1-2Man, mannose, and other mono- and disaccharides were added to the wells in the presence of 2G12 (1 μg/ml). Subsequent blocking, washing, and detection steps were performed as described in (13).

Which “inhibition of 2G12 binding to gp120 (in words)” value does the source give for `O=C(CO)[C@@H](O)[C@H](O)[C@H](O)CO` [Fructose] here?
Its value is “better inhibitor than mannose”.

Same assay, conditions: relative to Manα1-2Man; 2G12 1 μg/ml

`CC(=O)N[C@H]1[C@H](O[C@H]2[C@H](O)[C@@H](NC(C)=O)C(O)O[C@@H]2CO)O[C@H](CO)[C@@H](O[C@@H]2O[C@H](CO[C@H]3O[C@H](CO[C@H]4O[C@H](CO)[C@@H](O)[C@H](O)[C@@H]4O[C@H]4O[C@H](CO)[C@@H](O)[C@H](O)[C@@H]4O)[C@@H](O)[C@H](O[C@H]4O[C@H](CO)[C@@H](O)[C@H](O)[C@@H]4O[C@H]4O[C@H](CO)[C@@H](O)[C@H](O)[C@@H]4O)[C@@H]3O)[C@@H](O)[C@H](O[C@H]3O[C@H](CO)[C@@H](O)[C@H](O)[C@@H]3O[C@H]3O[C@H](CO)[C@@H](O)[C@H](O)[C@@H]3O[C@H]3O[C@H](CO)[C@@H](O)[C@H](O)[C@@H]3O)[C@@H]2O)[C@@H]1O` (stereo partly drawn) [Man9GlcNAc2] was tested. Which “inhibition of Mab 2G12 binding to gp120JR-FL compared to the disaccharide Manα1-2Man” value did it give?
The value was “over 50 fold”.

Same assay, conditions: relative to mannose; 2G12 1 μg/ml

For `CC(=O)N[C@H]1[C@H](O[C@H]2[C@H](O)[C@@H](NC(C)=O)C(O)O[C@@H]2CO)O[C@H](CO)[C@@H](O[C@@H]2O[C@H](CO[C@H]3O[C@H](CO[C@H]4O[C@H](CO)[C@@H](O)[C@H](O)[C@@H]4O[C@H]4O[C@H](CO)[C@@H](O)[C@H](O)[C@@H]4O)[C@@H](O)[C@H](O[C@H]4O[C@H](CO)[C@@H](O)[C@H](O)[C@@H]4O[C@H]4O[C@H](CO)[C@@H](O)[C@H](O)[C@@H]4O)[C@@H]3O)[C@@H](O)[C@H](O[C@H]3O[C@H](CO)[C@@H](O)[C@H](O)[C@@H]3O[C@H]3O[C@H](CO)[C@@H](O)[C@H](O)[C@@H]3O[C@H]3O[C@H](CO)[C@@H](O)[C@H](O)[C@@H]3O)[C@@H]2O)[C@@H]1O` (stereo partly drawn) [Man9GlcNAc2], which “inhibition of Mab 2G12 binding to gp120JR-FL compared to mannose (relative IC50)” value is on record?
The value was “over 200 fold”.

Biological target: HIV-1 gp120 JR-FL (HIV-1 (JR-FL))
Test: ELISA, crude Fab on gp120JR-FL; apparent affinity wt/mutant x100%
Conditions: not given

Which % Affinity Relative to Wild Type does the source give for Fab 2G12 mutant H D100bA here?
The % Affinity Relative to Wild Type was 52%.

With Fab 2G12 mutant H D100dA as the molecule, how does the % Affinity Relative to Wild Type read?
Its % Affinity Relative to Wild Type is 120%.

Fab 2G12 mutant H E75A was tested. Which % Affinity Relative to Wild Type did it give?
Its % Affinity Relative to Wild Type is 1.1%.

For Fab 2G12 mutant H E76A, which % Affinity Relative to Wild Type is on record?
The % Affinity Relative to Wild Type was 103%.

Fab 2G12 mutant H F77A was tested. Which % Affinity Relative to Wild Type did it give?
The % Affinity Relative to Wild Type was 0.1%.

Which % Affinity Relative to Wild Type does the source give for Fab 2G12 mutant H G96A here?
Its % Affinity Relative to Wild Type is 20%.

With Fab 2G12 mutant H H32A as the molecule, how does the % Affinity Relative to Wild Type read?
The % Affinity Relative to Wild Type was 0.4%.

Fab 2G12 mutant H I19A was tested. Which % Affinity Relative to Wild Type did it give?
The % Affinity Relative to Wild Type was 0.5%.

With Fab 2G12 mutant H K82bA as the molecule, how does the % Affinity Relative to Wild Type read?
Its % Affinity Relative to Wild Type is 51%.

For Fab 2G12 mutant H K95A, which % Affinity Relative to Wild Type is on record?
Its % Affinity Relative to Wild Type is 170%.

Which % Affinity Relative to Wild Type does the source give for Fab 2G12 mutant H L74A here?
The % Affinity Relative to Wild Type was 130%.

How did the % Affinity Relative to Wild Type turn out when Fab 2G12 mutant H L100A was run?
The % Affinity Relative to Wild Type was 0.1%.

How did the % Affinity Relative to Wild Type turn out when Fab 2G12 mutant H N100cA was run?
Its % Affinity Relative to Wild Type is 0.1%.

Which % Affinity Relative to Wild Type does the source give for Fab 2G12 mutant H P113A here?
Its % Affinity Relative to Wild Type is 0.1%.

For Fab 2G12 mutant H P113S, which % Affinity Relative to Wild Type is on record?
The % Affinity Relative to Wild Type was 0.1%.

Which % Affinity Relative to Wild Type does the source give for Fab 2G12 mutant H R39A here?
The % Affinity Relative to Wild Type was 130%.

For Fab 2G12 mutant H R39Q, which % Affinity Relative to Wild Type is on record?
Its % Affinity Relative to Wild Type is 170%.

For Fab 2G12 mutant H R57A, which % Affinity Relative to Wild Type is on record?
Its % Affinity Relative to Wild Type is 0.1%.

Which % Affinity Relative to Wild Type does the source give for Fab 2G12 mutant H R83A here?
The % Affinity Relative to Wild Type was 59%.

With Fab 2G12 mutant H S54A as the molecule, how does the % Affinity Relative to Wild Type read?
The % Affinity Relative to Wild Type was 0.1%.

Fab 2G12 mutant H S100aA was tested. Which % Affinity Relative to Wild Type did it give?
The % Affinity Relative to Wild Type was 0.1%.

How did the % Affinity Relative to Wild Type turn out when Fab 2G12 mutant H T33A was run?
The % Affinity Relative to Wild Type was 2%.

Fab 2G12 mutant H T52aA was tested. Which % Affinity Relative to Wild Type did it give?
Its % Affinity Relative to Wild Type is 190%.

Which % Affinity Relative to Wild Type does the source give for Fab 2G12 mutant H T55A here?
The % Affinity Relative to Wild Type was 0.1%.

Fab 2G12 mutant H V84A was tested. Which % Affinity Relative to Wild Type did it give?
The % Affinity Relative to Wild Type was 0.1%.

With Fab 2G12 mutant H Y56A as the molecule, how does the % Affinity Relative to Wild Type read?
The % Affinity Relative to Wild Type was 2%.

For Fab 2G12 mutant H Y79A, which % Affinity Relative to Wild Type is on record?
The % Affinity Relative to Wild Type was 0.1%.

With Fab 2G12 mutant L G93A as the molecule, how does the % Affinity Relative to Wild Type read?
Its % Affinity Relative to Wild Type is 120%.

For Fab 2G12 mutant L S28A, which % Affinity Relative to Wild Type is on record?
The % Affinity Relative to Wild Type was 0.1%.

Fab 2G12 mutant L W32A was tested. Which % Affinity Relative to Wild Type did it give?
Its % Affinity Relative to Wild Type is 50%.

Reference: US20050003347A1, “Domain-exchanged binding molecules, methods of use and methods of production” (priority 2003, published 2005)
